The target of experiment [1] is T1, full length mouse PD-1 expressed on 293F-mouse PD-1 cells (mouse, UniProt Q02242 25-288).
T1 construct: also called cell surface mouse PD-1
T1 sequence: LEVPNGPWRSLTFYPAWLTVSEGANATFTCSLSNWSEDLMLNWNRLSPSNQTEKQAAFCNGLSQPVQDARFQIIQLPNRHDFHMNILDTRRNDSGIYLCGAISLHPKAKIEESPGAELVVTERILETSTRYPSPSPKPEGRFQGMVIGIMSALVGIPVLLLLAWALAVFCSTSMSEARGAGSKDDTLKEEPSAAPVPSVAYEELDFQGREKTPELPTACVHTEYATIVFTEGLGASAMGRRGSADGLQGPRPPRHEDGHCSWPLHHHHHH
Kind of experiment: cell-based blocking FACS: 293F-mouse PD-1 cells incubated with antibody, then with mouse PD-L1-hFc (blocked ligand), detected with anti-human IgG Fc-PE; unit from the axis 'Con of mAb, nM.'. As for the experimental part: Briefly, 293F-mouse PD-1 cells were harvested from cell culture flasks, washed twice and re-suspended in PBS containing 2% v/v Fetal Bovine Serum (FACS buffer). Then, 1×10⁵ cells per well in 96 well-plates were incubated in 100 μL of the anti-PD-1 antibodies or controls at various concentrations (starting at 80 nM with a 3-fold serial dilution) in FACS buffer for 40 minutes at 4° C. […] The plates were washed twice with FACS buffer, and then added and incubated for 40 minutes at 4° C. in dark with 100 μl/well R-Phycoerythrin AffiniPure Goat Anti-Human IgG, Fcγ fragment specific (1:1000 dilution in FACS buffer, Cat#:109-115-098, Jackson Immunoresearch). Cells were washed twice and re-suspended in FACS buffer. Fluorescence was measured using a Becton Dickinson FACS Canto II-HTS equipment. Data was analyzed using Graphpad Prism software and IC₅₀ values were reported.

For experiment [2], the target named is T2, in house made human PD-1-Fc protein (human, biotin-labeled (sites not given)).
T2 construct: also called biotin-labeled human PD-1-Fc
Briefly: competitive ELISA: antibody pre-mixed with biotin-labeled human PD-1-Fc, added to coated human PD-L1-Fc (blocked ligand); unit from the axis 'Con of mAb, nM.'. As to the method:
The activities of the anti-PD1 antibodies of the disclosure to block PD-L1-PD1 binding were measured in a competitive ELISA.
Briefly, 100 μl human PD-L1-Fc protein (prepared in-house with SEQ ID NO: 28) at 2 μg/mL in carbonate/bicarbonate buffer (pH 9.6) was coated on 96-well micro plates overnight at 4° C., Plates were washed with wash buffer (PBS+0.05% w/v Tween-20, PBST), and blocked with 5% w/v non-fatty milk in PBST for 2 hours at 37° C. […] After incubation at 37° C. for 40 minutes, plates were washed using wash buffer. […] Plates were washed again using wash buffer. Finally, TMB was added and the reaction was stopped using 1M H₂SO₄. The absorbance was read on a microplate reader using dual wavelength mode with 450 nm for TMB and 630 nm as the reference wavelength, then the OD (450-630) values were plotted against antibody concentrations. Data was analyzed using Graphpad Prism software and IC₅₀ values were reported.

Experiment [3] addresses T3, recombinant mouse PD-1-his protein (Cat#:50124-M08H, Sino Biological Inc) (mouse, UniProt Q02242 25-167).
T3 construct: Bought protein used in Biacore and indirect ELISA; not shown: his tag
T3 sequence (looked up): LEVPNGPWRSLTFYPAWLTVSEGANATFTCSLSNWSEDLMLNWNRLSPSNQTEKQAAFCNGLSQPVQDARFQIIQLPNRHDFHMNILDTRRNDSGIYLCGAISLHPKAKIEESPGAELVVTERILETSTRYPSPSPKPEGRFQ
Briefly: SPR (Biacore T200), antibody captured, PD-1-his in flow, 1:1 fit. An excerpt:
The purified anti-PD-1 mouse monoclonal antibodies (mAbs) generated in Example 1 were characterized for binding affinities and binding kinetics by Biacore T200 system (GE healthcare, Pittsburgh, Pa., USA).
Briefly, Goat-Anti-Mouse IgG (Cat#: BR100838, GE healthcare, Mouse Antibody Capture Kit) was covalently linked to a CMS chip (carboxy methyl dextran coated chip, Cat#: BR100530, GE healthcare) via primary amines using a standard amine coupling kit (GE healthcare, Pittsburgh, Pa., USA) provided by Biacore. Un-reacted moieties on the biosensor surface were blocked with ethanolamine. A Protein G chip (Cat#:29-1793-15, GE healthcare) was used for the positive controls affinity determination. The anti-PD-1 antibodies of the disclosure and the two positive controls at the concentration of 2 μg/ml were respectively flowed onto the chip at a flow rate of 10 μl/min. Then, serially diluted recombinant human PD-1-his protein (Cat#:10377-H08H, Sino biological Inc.), cynomolgus PD-1-his protein (Cat#:PD1-05223, Acro biosystems Inc.) and recombinant mouse PD-1-his protein (Cat#:50124-M08H, Sino Biological Inc), 2-fold dilution in HBS-EP⁺ buffer (provided by Biacore) starting at 200 nM, were respecitvely flowed onto the chip at a flow rate of 30 μl/min. The antigen-antibody association kinetics was followed for 2 minutes and the dissociation kinetics was followed for 10 minutes. The association and dissociation curves were fit to a 1:1 Langmuir binding model using Biacore evaluation software.

The target of experiment [4] is T3, recombinant mouse PD-1-his protein …. Briefly: indirect ELISA on coated mouse PD-1-his; unit from the axis 'Con of mAb, nM.'. As to the method:
Briefly, 96-well micro plates were coated with 100 μl 2 μg/ml mouse PD-1-his (Cat#:50124-M08H, Sino Biological Inc) or 2 μg,/ml cynomolgus PD-1-his (Cat#:PD1-05223, Acro biosystems Inc.) in carbonate/bicarbonate buffer (pH 9.6) for 2 hours at 37° C. Plates were washed once with wash buffer (PBST, PBS+0.05% Tween-20) and then blocked with 200 μl blocking buffer (5% w/v non-fatty milk in PBST) for 2 hours at 37° C. […] ELISA plates were washed 4 times and incubated with Peroxidase AffiniPure goat anti-mouse IgG, Fcγ Fragment Specific (1:5000 dilution in PBST buffer, Cat#:115-035-071, Jackson ImmunoResearch Laboratories, Inc., 100 μl/well) or Peroxidase AffiniPure F(ab′)₂ Fragment Goat Anti-Human IgG, Fcγ fragment specific (Cat#:109-036-098, Jackson ImmunoResearch, for the controls) for 40 minutes at 37° C. After a final wash, plates were incubated with 100 μl/well TMB (Cat#:TMB-S-002, innoreagents) at room temperature. The reaction was stopped 3-10 minutes later with 50 μl/well 1M H₂SO₄, and the absorbance was read on a microplate reader using dual wavelength mode with 450 nm for TMB and 630 nm as the reference wavelength. Then the OD (450-630) values were plotted against antibody concentrations. Data was analyzed using GraphPad Prism software and EC₅₀ values were reported.

Positions count from the first letter of the chain named.

B1: mouse anti-PD-1 monoclonal antibody E1A9C8A7 (antibody, V domains shown)
VH: QVQLQQSGAEVVRPGVSVRISCKGSGYTFSDYVMHWMKQSHGESLEWIGVISTYHIPAVYNQKFKGKATMTVDKSSSTVYLELARLTSEDSAIYYCAREVYGDSYYFDVWGAGTTVTVSS
VL: DVLMTQIPLSLPVSLGDQVSISCRSSQSIVHSNGNTYLEWYLQKPGQSPKLLIYKVSNRFSGVPDRFSGSGSGTDFTLKISRVEAEDLGVYYCFQGSHVPYTFGGGTKLEIK
notes: Hybridoma-derived mouse mAb purified on Protein A; also called Mouse E1A9C8A7
B1 displayed an IC50 in experiment [1] of 6.86 nM. For the same molecule, in experiment [2], the IC50 is 0.45 nM. Moreover, in experiment [3], the Kd was determined as 150 nM, the koff amounted to 0.031 s⁻¹ and the kon turned out to be 207000 M⁻¹ s⁻¹. The EC50 in experiment [4] worked out at 0.185 nM.

B2: mouse anti-PD-1 monoclonal antibody E2G4E10B7 (antibody, V domains shown)
VH: QVQLQQSGAELVRPGVSVKISCKGSGYTFTDYVMHWVRQSHAKSLEWIGVISTHFGDGVYNQKFKGKATMTVDKSSSTAYMELARLTSEDSAIYYCAREVYGDSWYFDVWGAGTTVTVSS
VL: B1 VL with I7T, V19A, I29L, N33D, V83L
notes: Hybridoma-derived mouse mAb; also called Mouse E2G4E10B7
As for B2, the IC50 in experiment [1] amounted to 2.49 nM. In experiment [2], this molecule came in with an IC50 of 0.428 nM. Moreover, in experiment [3], the Kd was 29.8 nM, the koff was determined as 0.00553 s⁻¹ and the kon was found to be 186000 M⁻¹ s⁻¹. Besides, the EC50 in experiment [4] was found to be 0.34 nM.

In general, IC50 refers to the midpoint of a concentration-inhibition curve. High values mean weaker potency in that assay, low ones greater potency in that assay. Broadly, the Kd is the free concentration of one partner at which half of the binding sites on the other are occupied at equilibrium, for simple one-to-one binding. What is called koff is a measure of how fast the partners let go of each other. In general, kon refers to a measure of how fast the partners come together. A word on the EC50: it is the midpoint of the concentration-response curve.

The values are drawn from patent US20230331848A1 (BIOSION, published 2023).
